Reference: PMC8044208 (2021)

B1: human MLKL pseudokinase domain, as used for the KD measurements (domain or fragment)
chain: QEQIKEIKKEQLSGSPWILLRENEVSTLYKGEYHRAPVAIKVFKKLQAGSIAIVRQTFNKEIKTMKKFESPNILRIFGICIDETVTPPQFSIVMEYCELGTLRELLDREKDLTLGKRMVLVLGAARGLYRLHHSEAPELHGKIRSSNFLVTQGYQVKLAGFELRKTQTSMSLGTTREKTDRVKSTAYLSPQELEDVFYQYDVKSEIYSFGIVLWEIATGDIPFQGCNSEKIRKLVAVKRQQEPLGEDCPSELREIIDECRAHDPSVRPSVDEILKKLSTFSK
B2: Mb(MLKL_32) (protein)
chain: VSSVPTKLEVVAATPTSLLISWDAPAVTVDLYIITYGETGGNSPVQTFEVPGSKSTATISGLSPGVDYTITVYAYSFMYHDYYYPEWSPISINYRT

How the values were obtained:
Mb(MLKL_26) = assay: FACS; yeast display
[1] = biological target: B1; assay: previously reported

| Kd (Mb(MLKL_26)) | Kd [1] | Binder |
| --- | --- | --- |
| 176 nM | – | B1 |
| – | 37.1 nM | B2 |
